Data reported in IntAct's records for PubMed 30283133.

B1: D-alanyl carrier protein (Streptococcus thermophilus (strain ATCC BAA-250 / LMG 18311)), Q5M4V3 (parent)
chain: MDVKAEVIEIIDELFMEDVSDMMDEDLFDAGVLDSMGTVELIVELESRFDIRVPVSEFGRDDWNTANKIVEGVTELRNA
partner: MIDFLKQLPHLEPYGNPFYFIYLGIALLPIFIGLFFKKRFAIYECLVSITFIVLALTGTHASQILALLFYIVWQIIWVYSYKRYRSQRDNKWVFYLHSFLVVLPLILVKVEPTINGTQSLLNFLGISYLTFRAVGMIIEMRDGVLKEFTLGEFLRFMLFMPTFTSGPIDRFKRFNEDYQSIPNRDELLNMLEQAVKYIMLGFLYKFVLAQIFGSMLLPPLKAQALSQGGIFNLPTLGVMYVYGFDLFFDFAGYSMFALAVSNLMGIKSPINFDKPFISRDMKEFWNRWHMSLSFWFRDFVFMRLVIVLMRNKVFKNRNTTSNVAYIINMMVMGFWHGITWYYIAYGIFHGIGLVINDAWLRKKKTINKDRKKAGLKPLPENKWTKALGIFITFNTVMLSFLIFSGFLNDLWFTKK
B2: Teichoic acid D-alanyltransferase (Streptococcus thermophilus (strain ATCC BAA-250 / LMG 18311)), Q5M4V4 (parent)
chain: B1 partner
partner: B1 chain

Variants of: B1
Details: with dltb_strt2 dltB

| Variant | effect of a mutation on the interaction |
| --- | --- |
| V39D | decreasing interaction |
| V39R | decreasing interaction |

Variants of: B1
Details: with dltb_strt2 dltB, Q5M4V4

| Variant | effect of a mutation on the interaction |
| --- | --- |
| V39D | decreasing interaction strength |
| S35A | decreasing interaction |

Variants of: B2
Details: with dltc_strt2 dltC

| Variant | effect of a mutation on the interaction |
| --- | --- |
| V305D;I306D | disrupting interaction |
| V305D | decreasing interaction |

Variants of: B2
Details: with dltc_strt2 dltC, Q5M4V3

| Variant | effect of a mutation on the interaction |
| --- | --- |
| V305D;I306D | disrupting interaction strength |
| V305R | decreasing interaction strength |
